From the Human Domainome abundance scans (Beltran et al. 2025)
± gives the uncertainty stated by the source.

test: abundance fitness (aPCA) (normalised: wild type 0, dead -1); higher = more abundant; growth selection in yeast, the domain comes from the species named; settings: Homo sapiens

| Substance | abundance fitness |
| --- | --- |
| E3 ubiquitin-protein ligase NEDD4-like Y210G, Q96PU5 | -0.621 ± 0.057 |
| E3 ubiquitin-protein ligase NEDD4-like Y210I, Q96PU5 | -0.379 ± 0.07 |
| E3 ubiquitin-protein ligase NEDD4-like Y210K, Q96PU5 | -0.269 ± 0.069 |
| E3 ubiquitin-protein ligase NEDD4-like Y210L, Q96PU5 | -0.261 ± 0.058 |
| E3 ubiquitin-protein ligase NEDD4-like Y210M, Q96PU5 | -0.19 ± 0.084 |
| E3 ubiquitin-protein ligase NEDD4-like Y210N, Q96PU5 | -0.589 ± 0.095 |
| E3 ubiquitin-protein ligase NEDD4-like Y210P, Q96PU5 | -0.778 ± 0.1 |
| E3 ubiquitin-protein ligase NEDD4-like Y210Q, Q96PU5 | -0.198 ± 0.069 |
| E3 ubiquitin-protein ligase NEDD4-like Y210R, Q96PU5 | -0.299 ± 0.063 |
| E3 ubiquitin-protein ligase NEDD4-like Y210S, Q96PU5 | -0.359 ± 0.071 |
| E3 ubiquitin-protein ligase NEDD4-like Y210T, Q96PU5 | -0.159 ± 0.072 |
| E3 ubiquitin-protein ligase NEDD4-like Y210V, Q96PU5 | -0.356 ± 0.069 |
| E3 ubiquitin-protein ligase NEDD4-like Y210W, Q96PU5 | -0.287 ± 0.08 |
| E3 ubiquitin-protein ligase NEDD4-like Y211C, Q96PU5 | -0.696 ± 0.08 |
| E3 ubiquitin-protein ligase NEDD4-like Y211D, Q96PU5 | -0.486 ± 0.065 |
| E3 ubiquitin-protein ligase NEDD4-like Y211E, Q96PU5 | -0.643 ± 0.058 |
| E3 ubiquitin-protein ligase NEDD4-like Y211G, Q96PU5 | -0.749 ± 0.058 |
| E3 ubiquitin-protein ligase NEDD4-like Y211H, Q96PU5 | -0.77 ± 0.12 |
| E3 ubiquitin-protein ligase NEDD4-like Y211I, Q96PU5 | -0.601 ± 0.065 |
| E3 ubiquitin-protein ligase NEDD4-like Y211K, Q96PU5 | -0.691 ± 0.097 |
| E3 ubiquitin-protein ligase NEDD4-like Y211M, Q96PU5 | -0.779 ± 0.11 |
| E3 ubiquitin-protein ligase NEDD4-like Y211N, Q96PU5 | -0.704 ± 0.16 |
| E3 ubiquitin-protein ligase NEDD4-like Y211P, Q96PU5 | -0.548 ± 0.087 |
| E3 ubiquitin-protein ligase NEDD4-like Y211Q, Q96PU5 | -0.704 ± 0.085 |
| E3 ubiquitin-protein ligase NEDD4-like Y211R, Q96PU5 | -0.728 ± 0.052 |
| E3 ubiquitin-protein ligase NEDD4-like Y211S, Q96PU5 | -0.715 ± 0.055 |
| E3 ubiquitin-protein ligase NEDD4-like Y211T, Q96PU5 | -0.608 ± 0.064 |
| E3 ubiquitin-protein ligase NEDD4-like Y211V, Q96PU5 | -0.736 ± 0.06 |
| E3 ubiquitin-protein ligase NEDD4-like Y211W, Q96PU5 | -0.244 ± 0.078 |
